The text below walks through data of patent publication US20250361314A1 (SHANGHAI HUAOTA BIOPHARMACEUTICAL, published 2025).

As a reminder, the Kd is the equilibrium constant for the complex coming apart. The low end stands for higher affinity, the high end for lower affinity. As a reminder, the koff is the first-order rate constant of dissociation. Read a low koff as a long-lived complex. A word on the kon: it is the rate constant with which the complex forms. A lower kon goes with slower complex formation.

Test [1] concerns the target T1, Mouse CD39 antigen (mouse, UniProt P55772 38-478).
T1 construct: Antigen used as analyte in SPR
T1 sequence (looked up): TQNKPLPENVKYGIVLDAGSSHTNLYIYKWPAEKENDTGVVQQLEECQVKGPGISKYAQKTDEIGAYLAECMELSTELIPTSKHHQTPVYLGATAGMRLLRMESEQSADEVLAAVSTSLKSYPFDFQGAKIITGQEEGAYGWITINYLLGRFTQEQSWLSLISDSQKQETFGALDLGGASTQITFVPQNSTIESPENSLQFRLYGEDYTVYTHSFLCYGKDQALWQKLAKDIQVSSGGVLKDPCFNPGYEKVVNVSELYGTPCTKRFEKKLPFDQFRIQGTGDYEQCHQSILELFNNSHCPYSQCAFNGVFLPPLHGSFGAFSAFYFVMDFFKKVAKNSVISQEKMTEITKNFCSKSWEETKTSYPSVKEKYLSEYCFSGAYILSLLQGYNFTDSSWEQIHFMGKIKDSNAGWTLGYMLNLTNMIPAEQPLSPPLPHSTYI
Briefly: SPR (Biacore 8K), antibody captured on anti-human capture CM5 chip, antigen as analyte. Here is the method:
(§1) The experimental method is as follows:
(§2) An Anti-Human Capture-CM5 chip (GE, #BR-1005-30) was prepared using coupling methods of a Human Antibody Capture Kit (GE, #BR-1008-39) and an amino coupling kit (GE, BR-1000-50). The chip was equilibrated at room temperature for about 20-30 min and loaded into a Biacore 8K instrument. The antigen and antibody were diluted to an experimental working concentration using an equilibration buffer. The antigen was diluted with an equilibrium buffer to 50 nM, and then diluted three-fold for seven concentration gradients, and two zero concentrations (i.e., the equilibrium buffer) and one repeat concentration (typically the lowest concentration repeat) were set. Experimental analysis was performed on 10 antigen concentrations (2 zero concentrations, 7 gradient concentrations, and 1 repeated concentration) in a cyclic manner according to an order of antibody, antigen, and regeneration. The antigen injection flow rate was 30 μL/min, the binding time was 120 s, and the dissociation time was 600 s. Following the analysis, the data was analyzed using the corresponding analysis program to confirm that there was no obvious reference binding. Using Kinetics and a 1:1 binding model, the data was fit to obtain the kinetic related parameters Ka, Kd, and KD values of the bispecific antibodies.

Test [2] addresses T2, Cynomolgus CD39 antigen (cynomolgus, UniProt A0A7N9DGH8 38-478).
T2 construct: Antigen used as analyte in SPR
T2 sequence: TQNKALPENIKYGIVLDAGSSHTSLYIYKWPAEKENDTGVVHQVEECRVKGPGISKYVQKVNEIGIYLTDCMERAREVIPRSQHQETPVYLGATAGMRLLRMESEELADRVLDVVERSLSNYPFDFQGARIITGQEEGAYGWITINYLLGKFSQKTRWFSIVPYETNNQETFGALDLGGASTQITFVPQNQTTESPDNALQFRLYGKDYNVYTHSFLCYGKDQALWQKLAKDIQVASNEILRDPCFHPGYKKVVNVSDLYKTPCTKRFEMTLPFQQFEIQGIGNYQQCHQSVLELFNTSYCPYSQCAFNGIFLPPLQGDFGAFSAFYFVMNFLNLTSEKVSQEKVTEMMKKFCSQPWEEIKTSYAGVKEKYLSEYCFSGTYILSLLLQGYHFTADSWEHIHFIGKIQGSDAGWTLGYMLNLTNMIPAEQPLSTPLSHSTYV
The test is described as follows: SPR (Biacore 8K), species cross test, antibody captured on anti-human capture CM5 chip, antigen as analyte, 1:1 model. Here is the method: as §1, §2
(In general: Surface plasmon resonance follows binding to a sensor surface in real time, without labels.)

The target of test [3] is T3, Cynomolgus CD73 antigen (cynomolgus, UniProt A0A2K5V5U7 27-547).
T3 construct: Antigen used as analyte in SPR
T3 sequence: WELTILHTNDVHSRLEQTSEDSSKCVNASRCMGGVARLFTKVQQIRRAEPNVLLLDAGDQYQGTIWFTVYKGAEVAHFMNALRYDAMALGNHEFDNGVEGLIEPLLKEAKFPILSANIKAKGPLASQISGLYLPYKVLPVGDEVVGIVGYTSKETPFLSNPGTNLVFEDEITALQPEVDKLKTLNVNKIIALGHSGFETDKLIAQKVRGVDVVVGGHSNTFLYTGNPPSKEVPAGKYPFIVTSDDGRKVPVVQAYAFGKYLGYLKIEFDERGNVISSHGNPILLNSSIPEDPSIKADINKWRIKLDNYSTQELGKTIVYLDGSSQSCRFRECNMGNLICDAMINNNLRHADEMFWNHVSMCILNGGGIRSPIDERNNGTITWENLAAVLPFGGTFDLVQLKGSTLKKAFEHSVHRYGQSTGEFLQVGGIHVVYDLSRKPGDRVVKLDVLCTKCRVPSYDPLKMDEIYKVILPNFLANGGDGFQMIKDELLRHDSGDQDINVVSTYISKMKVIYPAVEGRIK
The test is described as above. Here is the method: as §1, §2

Test [4] deals with T4, Human CD39 antigen (human, UniProt P49961 38-478).
T4 construct: Antigen used as analyte in SPR; also called ENTPD1
T4 sequence (looked up): T2 sequence with I10V, Y57F, I184V, T193I, V292I, N331K, S354A
Described as above. Here is the method:
as §1, §2

Positions count from the first letter of the chain named.

B1: CD39/CD73 bispecific antibody 700035 (CD39-VHH-CD73-IgG) (bispecific antibody)
heavy: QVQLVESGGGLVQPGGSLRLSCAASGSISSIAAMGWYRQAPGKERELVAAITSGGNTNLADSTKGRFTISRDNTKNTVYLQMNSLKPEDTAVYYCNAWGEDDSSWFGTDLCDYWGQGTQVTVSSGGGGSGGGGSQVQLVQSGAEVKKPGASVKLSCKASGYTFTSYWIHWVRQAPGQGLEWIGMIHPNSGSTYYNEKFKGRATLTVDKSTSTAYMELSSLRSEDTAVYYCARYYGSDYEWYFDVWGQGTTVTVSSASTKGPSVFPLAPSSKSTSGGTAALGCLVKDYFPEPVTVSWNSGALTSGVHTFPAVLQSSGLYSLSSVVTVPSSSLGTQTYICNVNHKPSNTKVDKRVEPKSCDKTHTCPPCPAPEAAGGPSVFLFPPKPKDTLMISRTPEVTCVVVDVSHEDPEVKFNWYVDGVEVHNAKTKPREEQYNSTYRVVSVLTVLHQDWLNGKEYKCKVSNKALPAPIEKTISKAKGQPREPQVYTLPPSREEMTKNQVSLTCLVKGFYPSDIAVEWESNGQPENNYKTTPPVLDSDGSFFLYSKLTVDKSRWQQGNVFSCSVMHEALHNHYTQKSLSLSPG
light: DIQMTQSPSSMSASVGDRVTITCKASQNVRTAVVWYQQKPGKAPKALIYLASNRHTGVPDRFSGSGSGTDFTLTISSLQPEDFATYFCLQHWNYPYTFGQGTKLEIKRTVAAPSVFIFPPSDEQLKSGTASVVCLLNNFYPREAKVQWKVDNALQSGNSQESVTEQDSKDSTYSLSSTLTLSKADYEKHKVYACEVTHQGLSSPVTKSFNRGEC
Turning to B1, the binding result in test [1] was “no binding (tested: 50 nM (highest antigen concentration))”. For the same molecule, the Kd in test [2] was 2.61 nM; in test [3], 0.409 nM; in test [4] it was 0.0708 nM. Besides, the koff in test [2] was 0.00161 s⁻¹; in test [3], 0.000342 s⁻¹; in test [4] it was 9.28e-05 s⁻¹. In addition, the values for the kon in test [2], in test [3] and in test [4] were 618000 M⁻¹ s⁻¹, 836000 M⁻¹ s⁻¹ and 1.31e+06 M⁻¹ s⁻¹, respectively.

B2: CD39/CD73 bispecific antibody 700038 (CD39-VHH-CD73-IgG) (bispecific antibody)
heavy: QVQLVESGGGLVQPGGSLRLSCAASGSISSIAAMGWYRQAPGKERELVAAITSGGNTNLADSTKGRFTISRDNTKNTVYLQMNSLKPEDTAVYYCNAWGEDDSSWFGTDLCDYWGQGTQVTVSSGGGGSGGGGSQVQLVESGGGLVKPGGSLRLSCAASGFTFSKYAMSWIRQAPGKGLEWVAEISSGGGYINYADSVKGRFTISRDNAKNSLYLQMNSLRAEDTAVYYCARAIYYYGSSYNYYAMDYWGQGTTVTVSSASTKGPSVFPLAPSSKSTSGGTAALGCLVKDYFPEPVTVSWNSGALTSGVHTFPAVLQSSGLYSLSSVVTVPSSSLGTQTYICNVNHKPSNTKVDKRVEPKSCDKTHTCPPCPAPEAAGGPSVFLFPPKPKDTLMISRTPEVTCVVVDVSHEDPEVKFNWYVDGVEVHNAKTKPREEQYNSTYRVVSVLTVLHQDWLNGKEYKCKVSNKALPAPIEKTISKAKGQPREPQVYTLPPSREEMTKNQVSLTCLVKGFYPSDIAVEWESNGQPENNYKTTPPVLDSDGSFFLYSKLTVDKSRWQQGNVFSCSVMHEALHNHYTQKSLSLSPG
light: DIQMTQSPSSLSASVGDRVTITCRASQDVGTAEAWYQQKPGKAPKLLIYWASTRHTGVPSRFSGSGSGTDFTLTISSLQPEDFATYYCQQYSSYPLTFGQGTKLEIKRTVAAPSVFIFPPSDEQLKSGTASVVCLLNNFYPREAKVQWKVDNALQSGNSQESVTEQDSKDSTYSLSSTLTLSKADYEKHKVYACEVTHQGLSSPVTKSFNRGEC
B2: the Kd in test [2] turned out to be 2.69 nM; in test [3], 0.326 nM; in test [4], 0.0918 nM. In addition, the koff in test [2] was 0.00163 s⁻¹; in test [3], 0.000148 s⁻¹; in test [4], 9.54e-05 s⁻¹. The kon in test [2] worked out at 606000 M⁻¹ s⁻¹; in test [3], 456000 M⁻¹ s⁻¹; in test [4] it was 1.04e+06 M⁻¹ s⁻¹.
